Laboratory results as given in the supplement of paper PMC9942255.

The sequences below were run on Bacillus subtilis DB104 (SP-AmyQ fusion secretion) (assay: AmyQ secretion efficiency, weighted average sort bin (1 = best secretion, 10 = worst) (bin number (weighted average, 1-10)); higher = lower secretion efficiency).
In short: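 The secretion score was taken as the read-frequency-weighted mean bin number, normalised to beads per bin, with low-abundance sequences excluded. Bins came from large-particle flow cytometry sorting of occupied alginate beads (~65 nL, about 0.3 cells each, with fluorescein-starch) into 10 equally populated groups by green/red fluorescence ratio after about 13 h at room temperature and nile red staining. The cells were a B. subtilis DB104 library with mature AmyQ fused to designed signal peptides, integrated at amyE, and each bin's amplicons were Illumina-sequenced.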

Sequence | AmyQ secretion efficiency
MLKKIALTLCPAIVGSLLFFTAPFSAHVS | 5.46
MKRLFMKASLVLFAVVFVFAVKGAPTKAETH | 2.27
MTSAFILSAAAAVGLFTFGGVQQASAKEL | 2.86
MKWMCSICCAAVLLAGGAAQTEAV | 3.03
MRPVFPLILSAVLFLSCFFGARQTEISASKR | 2.64
MRSYIKVLTMCFLGLILFVPTKDEPALADNS | 2.48
MKKLLAAGIIGLLTVSIASPSFKAEK | 5.02
MAIIIAIIAAVIVIAALITFNVVNASPG | 8.99
MFLKLLLATSALTFSLSLVLPLDGHAKAQEV | 2.93
MKLSVKIAGVLTVAAAAMTAKMYGTAKGN | 5.59
MYSAIIIAIIAAVIVIAALITFNVRNASPG | 7.59
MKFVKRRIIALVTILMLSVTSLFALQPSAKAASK | 2.32
MRKVITCVMAASLTLGSLLPAGYATAKED | 3.88
MRKKLKWLSFLLGFIILLFLFKYQSSNNDS | 6.36
MKRITINIITMFIAAAVISLTGTAEAAPK | 2.12
MKKGIIRFRRVSFVLFFALSTGITGVQAAPA | 2.36
MSFKRVITCVMAASLTLGSLLPAGYASAKED | 2.84
MMIKQCVICLSLLVFGTTAAHARKR | 6.42
MKRFSTAYLLLGILCSAAVFLILSAGAPSRALGAEV | 3
MKLSVKIRRRKTVAAAAMTAKMYATAKGN | 7.97
MLKKVILAAFILVGSTLGAFSFSSDASAARK | 2.12
MKKSQYFIVFICFFVLFSVHPIAPAAADS | 4.14

Sequence | AmyQ secretion efficiency
MTKIGLLFMLCLAALFTIGFPAQQADAAEA | 3.42
MPIKKKVMMCKRVTLVFGSMSFPTLTNSGGFKE | 6.57
MKKSQYFIVFICFFVLFSVHPIAAAGADS | 3.85
MKLWMRKTLVVLFTIVTFGLVSPPAAHMADKP | 2.08
MKKWLIIAVSLAIAIVLFRRKKGRAKAAGM | 5.92
MKKRLIGFLVLVPALIMSGITLIEMNKK | 6.01
MMSLLAAGIIGLLTVSIASPSFAAEK | 5.23
MRSYIKVLTMCFLGLILFVPTILADNS | 2.6
MVKKWLRRRRVMLSVLSTFTYSASAVGV | 6.88
MKVPKTMLLSTAAGLLLSLTATSRSAHYV | 6.25
MRPVFPLILSAVLFLSCFEGAEQTEASASKR | 3.25
MAIIIAIIAAVIVIAALITFNVRNASKR | 7.12
MKKLLSAASLAFFAMSGSAQAAAY | 2.96
MKKWMASQKKSTQVLLCLMVPQQIQGASS | 7.24
MRKKLKWLSFLLGFIILLFLFKYQGSNNDS | 5.93
MKKKQVMLALTAAAGLGLTALHSAPAAKGAPL | 3.51
MKKKLAAGLTASAIVGTTLVVTPCEAATI | 1.75
MFNRLFRVCFLAALIMAFTLPNSVYAQTP | 2.03
MKRSYVSLRVWMVFLMNWVTPDRKTAAAAVY | 6.51
MKWMCSICCAAVLLAGIAIAQAEAV | 6.86
MKLKSKLLLSCLALSTVFVATTIGNAPTH | 7.24
MPINTFVMMCLAVTLVFGSMSFPTLTNSGGFKE | 7.23

Sequence | AmyQ secretion efficiency
MPIKKKVMMCLAVTLVFGSMIFITLTNSGGFKE | 6.04
MKVPKTMLLSTAAGLLLSLKKRSVSAHYV | 6.92
MKLWMRKTLVVLFLIVFFFLGTVSPPAALMADKP | 3.95
MKKVLMAFIICLSLILSVLAAPPSGDKAESV | 5.71
MKSKWMSGLLLVAVGFSFTQVMVHCGET | 4.81
MNLRKILLSSALSLGMLVSAAPVLWTSS | 6.71
MKKAAAVLLSLGLVFGFSYGAGHVAEAAED | 3.87
MKKAAAVLLSLGLVFGFSYGAGHVAEGKTK | 2.6
MKVLLSALLLLLFAFEPSVSGKKL | 6.17
MKKRLIAPMLLSAASLAFFAMSGSAQGAAY | 4.34
MKKRKRRNFKRFIAAFLVLALMISGVPADVLAKST | 2.12
MKRKRKRIMIFLTSFMLLAMTGQTALAKDV | 3.59
MKKKSTVFLSVVLVTTVFLVKQQESVAQAKQL | 2.06
MKSKGSIMACLILFSFTITTFINTETLSAFSN | 6.34
MRKKTKNRLISSVLSTVVISSPGAAGASSK | 3.33
MKRIRIPMTLALGAALTIAPLSFGSAEEN | 4.51
MFKKHMNNFTISLLIIFLLASAVLAKPIEAHTV | 3.28
MKRKRSIMACLILFSFTITTFINTETISAFSN | 3.86
MKRSMLFILVLSFLSIIVAYPIQTNASPM | 2.84
MKLKSKLLLSCLALSTVFVATTIANCPTH | 7.55
